Literature values, collected in publication PMC6322933.

Target: ZPI (Homo sapiens) (UniProt Q9UK55)
UniProt Q9UK55, sequence (Q9UK55 22-444): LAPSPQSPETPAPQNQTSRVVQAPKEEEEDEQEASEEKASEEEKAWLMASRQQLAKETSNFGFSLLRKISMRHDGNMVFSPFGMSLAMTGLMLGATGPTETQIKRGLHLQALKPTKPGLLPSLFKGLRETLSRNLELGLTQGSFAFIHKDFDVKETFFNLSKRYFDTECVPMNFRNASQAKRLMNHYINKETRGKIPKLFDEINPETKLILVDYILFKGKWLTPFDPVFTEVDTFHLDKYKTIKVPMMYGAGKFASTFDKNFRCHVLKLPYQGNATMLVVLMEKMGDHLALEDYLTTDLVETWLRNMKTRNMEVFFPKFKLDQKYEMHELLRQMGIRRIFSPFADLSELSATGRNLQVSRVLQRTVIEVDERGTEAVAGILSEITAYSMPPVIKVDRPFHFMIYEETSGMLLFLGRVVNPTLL

## Protein Z (from UniProt P22891)
  Kd: 0.6 nM
